Experimental data taken from paper PMC3268225 (Biochemical Journal, 2011).

How the values were obtained:
His6–Zb–eEF2K[48–336] = target: T1, His6–Zb–eEF2K[48–336] (human, UniProt O00418 48-336); assay: pull-down
T1 sequence: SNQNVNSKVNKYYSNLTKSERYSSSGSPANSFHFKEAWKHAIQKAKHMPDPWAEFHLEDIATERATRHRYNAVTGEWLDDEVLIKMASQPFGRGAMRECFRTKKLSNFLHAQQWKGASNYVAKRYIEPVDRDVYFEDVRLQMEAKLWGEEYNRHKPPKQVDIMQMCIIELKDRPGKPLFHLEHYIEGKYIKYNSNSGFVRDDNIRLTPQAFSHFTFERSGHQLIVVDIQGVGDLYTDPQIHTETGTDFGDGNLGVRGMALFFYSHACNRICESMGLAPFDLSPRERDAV

eEF2K[48–336] = target: T2, eEF2K[48–336] (human, UniProt O00418 48-336); assay: SEC
T2 sequence: T1 sequence

GST–eEF2K[1–402]–His6 = target: T3, GST–eEF2K[1–402]–His6 (human, UniProt O00418 1-402); assay: ELISA
T3 sequence: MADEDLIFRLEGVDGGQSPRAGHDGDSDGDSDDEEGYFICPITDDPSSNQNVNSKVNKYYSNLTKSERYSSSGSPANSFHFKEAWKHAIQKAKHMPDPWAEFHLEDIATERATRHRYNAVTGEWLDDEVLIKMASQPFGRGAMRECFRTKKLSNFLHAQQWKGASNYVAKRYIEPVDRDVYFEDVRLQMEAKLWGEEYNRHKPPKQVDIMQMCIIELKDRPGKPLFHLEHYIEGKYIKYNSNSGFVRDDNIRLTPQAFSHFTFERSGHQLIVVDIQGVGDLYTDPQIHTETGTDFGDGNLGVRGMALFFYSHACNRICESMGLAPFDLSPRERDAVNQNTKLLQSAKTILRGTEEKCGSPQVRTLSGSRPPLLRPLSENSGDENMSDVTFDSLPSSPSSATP

B1: His6–eEF2K[490–725] (domain or fragment)
chain: NSSRLHLPRASAVALEVQRLNALDLEKKIGKSILGKVHLAMVRYHEGGRFCEKGEEWDQESAVFHLEHAANLGELEAIVGLGLMYSQLPHHILADVSLKETEENKTKGFDYLLKAAEAGDRQSMILVARAFDSGQNLSPDRCQDWLEALHWYNTALEMTDCDEGGEYDGMQDEPRYMMLAREAEMLFTGGYGLEKDPQRSGDLYTQAAEAAMEAMKGRLANQYYQKAEEAWAQMEE
binding result (His6–Zb–eEF2K[48–336]): binds

B2: eEF2K[490–725] (domain or fragment)
chain: B1 chain
binding result (eEF2K[48–336]): binds

B3: GST–eEF2K[478–725] (domain or fragment)
chain: SGRVCVEKWNLLNSSRLHLPRASAVALEVQRLNALDLEKKIGKSILGKVHLAMVRYHEGGRFCEKGEEWDQESAVFHLEHAANLGELEAIVGLGLMYSQLPHHILADVSLKETEENKTKGFDYLLKAAEAGDRQSMILVARAFDSGQNLSPDRCQDWLEALHWYNTALEMTDCDEGGEYDGMQDEPRYMMLAREAEMLFTGGYGLEKDPQRSGDLYTQAAEAAMEAMKGRLANQYYQKAEEAWAQMEE
binding result (GST–eEF2K[1–402]–His6): binds
